Assay results published in the RNAGym collection of RNA variant scans (doi:10.1073/pnas.2313332121).

B1: TPR t1 (parent)
chain: GACCAAUCUGCCCUCAGAGCUCGAGAACAUCUUCGGAUGCAGAGGAGGCAGGCUUCGGUGGCGCGAUAGCGCCAACGUCCUCAACCUCCAAUGCAUCCCACCACAUGAUGAUGCCUGAAGAGCCUUGGUUUUUUG

Variants of: B1
Test: polymerase ribozyme fitness, log enrichment relative to wild type (log ratio); higher = more active; in vitro selection for triplet polymerase activity
Outline: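 Mutant libraries were PCR-built and transcribed for each subunit of a heterodimeric triplet polymerase ribozyme and selected for one round in triplicate at −7 °C, frozen, before gel excision of extended constructs and streptavidin-bead capture. Input and output libraries were Illumina-sequenced, keeping genotypes with ≥10 input reads and ≥1 read per output. Fitness is a logarithmic ratio of genotype to wild-type enrichment, in base 2, using inverse-variance-weighted replicate averages.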

| Variant | polymerase ribozyme fitness (log ratio) |
| --- | --- |
| C88A U106A | -0.303 |
| C88A U106A U109A U126A U131G | -5.92 |
| C88G | -0.581 |
| C88G C94A A111C U133A | -3.52 |
| C88G C102U G117U | -6.89 |
| C88G G107A U130C | -6.86 |
| C88G G107U A111C A121U U125A | -3.56 |
| C88G G110C | -5.26 |
| C88G G117C | -4.47 |
| C88G G120A A121C G135U | -0.939 |
| C88G G128C | -3.43 |
| C88G U106G | -2.4 |
| C88G U131C | -0.249 |
| C88U | -0.0459 |
| C88U A100U G120A | -0.615 |
| C88U A105G C123U | -1.46 |
| C88U A119G | 1.04 |
| C88U C89A A121U G122A | -1.15 |
| C88U C94U | -1.32 |
| C88U C104U | 0.689 |
| C88U C115A | -0.441 |
| C88U G120A G128A | -1.29 |
| C88U G120C | 0.853 |
| C88U G120U | 0.291 |

| Variant | polymerase ribozyme fitness (log ratio) |
| --- | --- |
| C88U G120U U126G | -3.22 |
| C88U U116C G120C | -0.613 |
| C89A A111U G113A | -5.69 |
| C89A A121G | 1.44 |
| C89A C94A C104U G110A | -4.47 |
| C89A C101A G117A | -5 |
| C89A C114G | -2.82 |
| C89A C114U | -0.329 |
| C89A C124A | 0.985 |
| C89A G93A | -2.99 |
| C89A G93A G120A | -1.81 |
| C89A G113C | -1.8 |
| C89A G117A | -1.73 |
| C89A G117C | -4.96 |
| C89A G117U | -4.53 |
| C89A G120U | -1.79 |
| C89A G128C | -4.25 |
| C89G A90G G127C | -2.22 |
| C89G C94G | -3.06 |
| C89G C123G | 0.45 |
| C89G C124A | 0.877 |
| C89G G93A C94G C124G G128C | -7.66 |
| C89G G113C G122U | -2.99 |
| C89G G127U | -2.9 |

| Variant | polymerase ribozyme fitness (log ratio) |
| --- | --- |
| C89G U92A G122A | -4.41 |
| C89G U109A | -5.37 |
| C89G U109G | -5.16 |
| C89G U125A | -2.07 |
| C89G U126A | -2.85 |
| C89U A90G | 0.141 |
| C89U A105U | -2.8 |
| C89U A108G C114U | -4.44 |
| C89U C101A | -1.39 |
| C89U C104A | -1.84 |
| C89U C124A | 0.152 |
| C89U C124U | 1.37 |
| C89U G117A U129A | -3.55 |
| A90C C97A C99G G113A G122U | -7.3 |
| A90C C97U G113A | -2.12 |
| A90C C102U | -4.08 |
| A90C C104A | -3.78 |
| A90C G120U | -1.31 |
| A90C U106A A108G | -2.24 |
| A90G A119U | 0.257 |
| A90G C114A | -1.4 |
| A90G U112G | 1.3 |
| A90U C97U | -2.38 |
| A90U C114G A118G | -3.15 |

| Variant | polymerase ribozyme fitness (log ratio) |
| --- | --- |
| A90U G93U | -1.11 |
| A90U G113A G128A | -3.47 |
| A90U G117C | -1.43 |
| A90U U133G | -1.46 |
| A91C C98G G113A | -5.51 |
| A91C C114G | -2.5 |
| A91C C114U G127A | -4.1 |
| A91C C123A U133G | -1.07 |
| A91C G127C | -2.93 |
| A91C U129A | -2.78 |
| A91C U133A | -0.906 |
| A91G C101U G110A | -2.85 |
| A91G C102A C104A U109A | -5.59 |
| A91G C104A | -2.34 |
| A91G G93C G120C | -2.18 |
| A91G G110U | -2.66 |
| A91G G117U | -3.4 |
| A91U A111C | -2.44 |
| A91U C101A | -2.72 |
| A91U G120U | -1.93 |
| A91U G128U | -3.95 |
| A91U U132C | -1.79 |
| U92A A118U | -1.95 |
| U92A C101A | -3.47 |

| Variant | polymerase ribozyme fitness (log ratio) |
| --- | --- |
| U92A C104U | -3.56 |
| U92A G93C | -2.69 |
| U92A U131G | -2.59 |
| U92C A118U | -0.718 |
| U92C G117A | -2.67 |
| U92C G120U | 0.184 |
| U92C U106G G135C | -3.67 |
| U92C U112A | -0.53 |
| U92C U125G | -1.76 |
| U92G C104G | -7.29 |
| U92G G93C | -3.76 |
| U92G G122U C124U U126C | -5.41 |
| G93A | -0.498 |
| G93A A100G U112C U131A | -2.69 |
| G93A A111U G122C | -4.63 |
| G93A A118U U133A | 0.0816 |
| G93A C98U | -1.72 |
| G93A C101U | -1.15 |
| G93A C102A | -1.81 |
| G93A C102U | -2.73 |
| G93A C114A G122A U131A | -3.27 |
| G93A C123G | 0.42 |
| G93A G110A U112A | -2.76 |
| G93A G110U | -2.04 |

| Variant | polymerase ribozyme fitness (log ratio) |
| --- | --- |
| G93A G128A | -1.95 |
| G93A G128C | -2.72 |
| G93A G135C | -1 |
| G93A U96A | -1.69 |
| G93A U130G | -1.45 |
| G93C | -0.928 |
| G93C A100C | -2.34 |
| G93C A105U C114G A119G | -7.51 |
| G93C A121U | 1.21 |
| G93C C101A C123A U125A U131A | -1.5 |
| G93C C102A | -2.96 |
| G93C C104A A118U | -1.82 |
| G93C U96C G110A A118C | -2.57 |
| G93C U106A | -0.61 |
| G93C U112A | 0.679 |
| G93U | -1.12 |
| G93U A95U C97G G120U C124U | -6.74 |
| G93U A121U | 1.23 |
| G93U C98U G120C | -3.66 |
| G93U C101A G113A C115G | -4.73 |
| G93U G110C | -4.54 |
| G93U G122A | -1.55 |
| G93U G128C | -4.57 |
| G93U U96G | -1.89 |

| Variant | polymerase ribozyme fitness (log ratio) |
| --- | --- |
| G93U U112A | 0.151 |
| C94A | -0.804 |
| C94A C101G | -2.45 |
| C94A G110U | -2.28 |
| C94A G113A | -0.888 |
| C94A G127U U134G G135U | -2.31 |
| C94A G128A U129G | -3.11 |
| C94A U112C U126G | -0.847 |
| C94A U129C | -0.753 |
| C94G | -0.92 |
| C94G C123U | 0.403 |
| C94G G113A | -3.13 |
| C94G U109A | -6.28 |
| C94U | -0.383 |
| C94U C101A | -1.52 |
| C94U C114U | -2.58 |
| C94U C115A | -0.137 |
| C94U G107A | -4.87 |
| C94U G120C | 0.688 |
| C94U G135U | -1.34 |
| A95C A108G G110U | -4 |
| A95C C101U U106A | -0.358 |
| A95C G120U | -0.765 |
